Assay results: patent US20190309087A1

Tests used:
[1] = target: recombinant mouse CD34 (Sino Biological) (mouse) (UniProt Q64314); test: ELISA on coated recombinant mouse CD34, LNPs pre-incubated with Triton X-100, anti-Rat HRP detection
[2] = target: recombinant mouse CD34 (Sino Biological) (mouse) (UniProt Q64314); test: ELISA on coated recombinant mouse CD34
[3] = target: anti-CD34 RIg (clone mec14.7) held by ASSET on TsiLNPs; test: share of added RIg held on ASSET LNPs, gel quantification after purification
[4] = target: Rat IgG2a (RIg), BioXcell clone FIB504; test: ELISA, plates coated with 5 µg/ml RIg, ASSET in serial dilutions, anti-His detection
[5] = target: Rat IgG2a (RIg), BioXcell clone FIB504; test: ELISA on coated RIg of ASSET LNPs after dialysis, LNPs pre-incubated with 0.2% Triton X-100
[6] = target: Rat IgG2a (RIg) immobilized on the Biacore chip (Rattus norvegicus (Rat)) (UniProt P20760); test: SPR, Biacore T-200, RIg immobilized on CM5 chip, mASSET 0 to 30 nM
Sequence of UniProt P20760 (P20760 whole entry): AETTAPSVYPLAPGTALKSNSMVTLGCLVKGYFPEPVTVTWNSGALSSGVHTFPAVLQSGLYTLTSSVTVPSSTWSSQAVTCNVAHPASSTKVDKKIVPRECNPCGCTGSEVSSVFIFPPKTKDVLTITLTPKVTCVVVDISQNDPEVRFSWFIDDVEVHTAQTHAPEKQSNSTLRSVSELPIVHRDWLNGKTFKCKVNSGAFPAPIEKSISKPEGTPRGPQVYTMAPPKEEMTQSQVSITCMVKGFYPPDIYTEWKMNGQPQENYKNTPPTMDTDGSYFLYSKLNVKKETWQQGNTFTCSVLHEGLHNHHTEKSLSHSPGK

Sequence of UniProt Q64314 (Q64314 35-287 limits assumed): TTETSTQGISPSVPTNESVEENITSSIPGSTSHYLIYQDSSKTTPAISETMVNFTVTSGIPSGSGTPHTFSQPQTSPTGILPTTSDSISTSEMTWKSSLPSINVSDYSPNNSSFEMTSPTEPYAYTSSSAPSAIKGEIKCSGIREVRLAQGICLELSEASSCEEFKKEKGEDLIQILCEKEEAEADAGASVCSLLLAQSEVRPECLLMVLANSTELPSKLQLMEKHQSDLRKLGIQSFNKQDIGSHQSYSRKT

“anti-CD34 RIg (clone mec14.7) held by ASSET on TsiLNPs (antibody)” showed a Kd [1] of 0.24 nM.

In the case of “anti-CD34 RIg (clone mec14.7) chemically conjugated to LNPs (ccTsiLNPs) (antibody)”, the fold loss in activity against RIg bound to the LNP by ASSET [2] is reported as 4.5 fold and the Kd [1] is reported as 1.08 nM.

B1: ASSET (Anchored Secondary scFv Enabling Targeting) (scFv, part only; not given: mCherry fusion and junctions, part only)
scFv, part: CDQSSSEVQLLQSGPELVKPGASVKIPCKASGYTFTDYNMDWVKQSHEKSLEWIGYINPYSGDTIYNHKFKDKATLTVYKSSNIAYMELRSLTSEDTAVYYCARGGYDYGDHWGQGTTLTVSSGSAGGGGSGGGGSGGGGSDIKMTQSPSSMYASLGERVTITCKASQDINSYLSWFQQKPGKSPKTLIYRANRLVDGVPSRFSGSGSGQDYSLTISSLEYEDMGIYYCLQDDEFPRTFGGGTKLEIKHHHHHH
modifications: N-terminal cysteine of the CDQSSS NlpA motif is lipid-acylated (bacterial lipidation)
B1 showed an IgG incorporation [3] of 98.3%, a Kd [4] of 10 nM and a functionality maintained after incorporation into LNPs [5] of 95.8%.

B2: mutated (m)ASSET, fusion protein containing a mutated NlpA motif (scFv, not shown: small tags and cut ends)
scFv: EVQLLQSGPELVKPGASVKIPCKASGYTFTDYNMDWVKQSHEKSLEWIGYINPYSGDTIYNHKFKDKATLTVYKSSNIAYMELRSLTSEDTAVYYCARGGYDYGDHWGQGTTLTVSSGSAGGGGSGGGGSGGGGSDIKMTQSPSSMYASLGERVTITCKASQDINSYLSWFQQKPGKSPKTLIYRANRLVDGVPSRFSGSGSGQDYSLTISSLEYEDMGIYYCLQDDEFPRTFGGGTKLEIK
For B2, the Kd [6] was 22.7 nM.
